Experimental findings from patent US20200147235A1 (AbbVie / Abbott, published 2020) are described below.

Assay [1] has as its target T1, Cynomolgus monkey CD98 expressed on stably transfected 3T12 cells (cynomolgus monkey).
T1 construct: whole, on cells; also called cyCD98
Briefly: flow cytometry, 3T12 cells expressing cynomolgus CD98. The protocol:
(§1) Briefly, binding kinetics of anti-CD98 chimera mAbs for human and cynomolgus CD98 ECDs were determined by surface plasmon resonance-based measurements as described in Example 4. Table 10 reported the association and dissociation rate constants for CD98 binding, kₐ (M⁻¹s⁻¹) and kd (s⁻¹), and the equilibrium dissociation constant KD (M) of the interaction between antibodies and the target antigen. Binding of anti-CD98 chimera mAbs for CD98 on cell surface was evaluated by flow cytometry against CHO-K1 cell line stably transfected to express human CD98 and 3T12 cell line stably transfected to express cynomolgus monkey CD98.

The target of assay [2] is T2, Human CD98 ECD with C-terminal His-tag (human, UniProt P08195 105-529).
T2 construct: also called huCD98 ECD; recombinant human CD98 extracellular domain
T2 sequence: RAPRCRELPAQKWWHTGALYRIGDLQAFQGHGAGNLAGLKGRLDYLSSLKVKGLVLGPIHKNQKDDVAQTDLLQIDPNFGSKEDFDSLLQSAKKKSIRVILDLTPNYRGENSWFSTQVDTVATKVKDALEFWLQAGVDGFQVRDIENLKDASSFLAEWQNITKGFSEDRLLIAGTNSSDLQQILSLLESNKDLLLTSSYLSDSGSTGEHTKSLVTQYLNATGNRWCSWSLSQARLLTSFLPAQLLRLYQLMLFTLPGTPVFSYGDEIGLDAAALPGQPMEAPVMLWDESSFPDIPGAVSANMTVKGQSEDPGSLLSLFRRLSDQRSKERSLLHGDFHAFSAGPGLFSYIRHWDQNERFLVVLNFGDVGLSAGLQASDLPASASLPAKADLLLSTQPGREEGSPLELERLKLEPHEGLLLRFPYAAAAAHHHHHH
Briefly: SPR Biacore, anti-Fc capture of mAb, CD98 ECD analyte. On the procedure: (§2) The binding kinetics of these purified mouse and rat monoclonal anti-CD98 antibodies for purified recombinant CD98 protein (extracellular domain. ECD) were determined by surface plasmon resonance-based measurements made on Biacore T100/T200 instruments (GE Healthcare, Piscataway, N.J.) at 25° C. using an anti-Fc capture assay approach. Binding kinetic measurements were made in the assay buffer HBS-EP+: 10 mM Hepes, pH 7.4, 150 mM NaCl, 3 mM EDTA, 0.05% Tween 20). For example, approximately 8000 RU of anti-Fc (species specific) polyclonal antibody (Thermo Fisher Scientific Inc. Rockford, Ill.) diluted in 10 mM sodium acetate (pH 4.5) was directly immobilized across a CM5 research grade biosensor chip using a standard amine coupling kit according to manufacturer's instructions and procedures at 25 μg/ml. Unreacted moieties on the biosensor surface were blocked with ethanolamine. The test antibody to be captured as a ligand was diluted in running buffer to ˜0.5 μg/mL and injected over anti-Fc surface at a flow rate of 10 μL/min, CD98 binding and dissociation were observed under a continuous flow rate of 80 μL/min. Human and cynomolgus monkey CD98 ECDs, both with a C-terminal His-tag, are used for this study (Table 3). After each cycle the anti-Fc capture surface was regenerated using 10 mM Glycine-HCl, pH 1.5. During the assay, all measurements were referenced against the capture surface alone (i.e., with no captured test antibody) and buffer-only injections (no antigen) were used for double referencing. For kinetic analysis, rate equations derived from the 1:1 Langmuir binding model were fitted simultaneously, globally and with mass transfer term included to multiple referenced antigen binding curves using Biacore T100T200 Evaluation software.
(§3) Briefly, binding kinetics of anti-CD98 chimera mAbs for human and cynomolgus CD98 ECDs were determined by surface plasmon resonance-based measurements as described in Example 4.
For orientation: In SPR one partner is held on a chip, and binding of the other changes the refractive index at the surface.

Assay [3] has as its target T3, Cynomolgus monkey CD98 ECD with C-terminal His-tag (cynomolgus monkey, UniProt P08195 105-529 (human entry)).
T3 construct: also called cyCD98 ECD; recombinant cynomolgus monkey CD98 extracellular domain
T3 chain: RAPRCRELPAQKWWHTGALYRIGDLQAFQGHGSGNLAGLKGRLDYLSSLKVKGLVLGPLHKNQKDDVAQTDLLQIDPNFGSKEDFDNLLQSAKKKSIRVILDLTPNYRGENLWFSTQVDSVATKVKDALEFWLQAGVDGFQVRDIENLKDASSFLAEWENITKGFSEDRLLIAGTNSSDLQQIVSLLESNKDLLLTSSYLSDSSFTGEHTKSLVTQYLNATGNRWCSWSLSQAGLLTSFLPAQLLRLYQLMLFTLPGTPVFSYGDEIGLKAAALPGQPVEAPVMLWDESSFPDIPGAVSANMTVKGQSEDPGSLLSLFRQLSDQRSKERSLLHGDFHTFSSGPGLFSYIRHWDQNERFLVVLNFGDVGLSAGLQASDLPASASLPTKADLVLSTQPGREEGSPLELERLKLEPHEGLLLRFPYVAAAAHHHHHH
Described as above. The protocol:
as §2, §3

Assay [4] concerns the target T4, Human CD98 expressed on stably transfected CHO-K1 cells (human).
T4 construct: also called huCD98; CD98 heavy chain
T4 chain: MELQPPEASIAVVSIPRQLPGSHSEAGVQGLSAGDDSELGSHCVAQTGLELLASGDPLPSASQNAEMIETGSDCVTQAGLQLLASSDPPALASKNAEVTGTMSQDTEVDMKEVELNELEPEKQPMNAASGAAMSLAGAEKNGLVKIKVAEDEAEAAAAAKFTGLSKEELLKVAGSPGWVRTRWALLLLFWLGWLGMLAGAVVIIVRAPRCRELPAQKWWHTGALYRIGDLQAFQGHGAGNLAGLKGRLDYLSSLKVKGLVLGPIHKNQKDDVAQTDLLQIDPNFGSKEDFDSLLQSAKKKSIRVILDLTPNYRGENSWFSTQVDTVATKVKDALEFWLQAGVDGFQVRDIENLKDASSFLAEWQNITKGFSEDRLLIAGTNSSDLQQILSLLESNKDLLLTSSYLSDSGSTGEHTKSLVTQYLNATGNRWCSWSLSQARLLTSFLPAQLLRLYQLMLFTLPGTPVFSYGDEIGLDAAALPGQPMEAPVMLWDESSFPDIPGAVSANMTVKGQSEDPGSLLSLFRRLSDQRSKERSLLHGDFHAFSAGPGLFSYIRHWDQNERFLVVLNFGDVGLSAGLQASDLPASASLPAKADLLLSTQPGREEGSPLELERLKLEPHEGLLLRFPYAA
Briefly: flow cytometry, CHO-K1 cells expressing human CD98. On the procedure: as §1
On the technique in general: A flow cytometer gives signals particle by particle.

B1: Recombinant anti-CD98 chimeric antibody chAb5 (antibody, human IgG1, V domains shown)
VH: EVKLVESGGGLVQPGGSLRLSCATSGFTFTDYYMTWVRQPPGKALEWLGFIRNKANGYTTEYSASVKGRFTISRDNSLSILYLQMNTLRAEDSATYYCARASYVNSEGWFAYWGQGTLVTVSA
VL: DIVMSQSPSSLAVSVGEKVTMSCKSSQSLLYSSNQKNYLAWYQQKLGQSPKLLIYWASTRESGVPDRFTGSGSGTDFTLTISSVKAEDLAVYYCQHYYSYPRTFGGGTKLEIK
For orientation: EC50 means the concentration that produces a half-maximal response. The Kd is the concentration at which binding is half-saturated. What is called koff is the first-order rate constant of dissociation. A word on the kon: it is a measure of how fast the partners come together. For B1, the EC50 in assay [1] was determined as 24.2 nM. Moreover, in assay [2], the equilibrium dissociation constant (Kd) was 7.5 nM, the koff is 0.0003 s⁻¹ and the on-rate constant (kon) was 40000 M⁻¹ s⁻¹. Also, in assay [3], the equilibrium dissociation constant (Kd) was 25 nM, the koff stood at 0.00044 s⁻¹ and the kon turned out to be 18000 M⁻¹ s⁻¹. In addition, a half-maximal effect in assay [4] (EC50) was put at 3.25 nM.

B2: Recombinant anti-CD98 chimeric antibody chAb4 (antibody, human IgG1, V domains shown)
VH: EVKLVESGGGLVQPGGSLRLSCTTSGFTFTDYYMSWVRQPPGKALEWLGFIRNKATIYTTEYSASVKGRFTISRDNSQSILYLQMNTLRAEDSATYYCARASYGNSEGWFAYWGQGTLVTVSA
VL: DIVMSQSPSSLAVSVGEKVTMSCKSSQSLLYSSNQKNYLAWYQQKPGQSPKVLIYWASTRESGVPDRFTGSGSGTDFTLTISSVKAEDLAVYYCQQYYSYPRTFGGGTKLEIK
B2 yielded a concentration for a half-maximal effect (EC50) in assay [1] of 17.2 nM. In assay [2], this molecule had an equilibrium dissociation constant (Kd) of 2.8 nM, an off-rate (koff) of 7.8e-05 s⁻¹ and a kon of 28000 M⁻¹ s⁻¹. Moreover, in assay [3], binding was put at a Kd of 8.3 nM, the koff came to 7.3e-05 s⁻¹ and the association rate constant (kon) was determined as 8800 M⁻¹ s⁻¹. In assay [4], this molecule displayed an EC50 of 5.41 nM.

B3: Recombinant anti-CD98 chimeric antibody chAb3 (antibody, human IgG1, V domains shown)
VH: EVKLVESGGGLVQPGNSLRLSCATSGFTFIDYYMSWVRQSPGKALEWLGFIRNKANGYTTEYSASVKGRFTISRDNSQSILYLQMDTLRAEDSATYYCTRDRPAWFVYWGQGTLVTVSA
VL: DIVMSQSPSSLAVSVGEKVTMSCKSSQSLLYSSNQKNYLAWYQQKPGQSPKLLIYWASTRESGVPDRFTGSGSGTDFTLTFSSVRAEDLAVYYCQQYYSYPYTFGGGTKLEIK
In the case of B3, the EC50 in assay [1] was determined as 9.87 nM. In assay [2], this molecule yielded a Kd of 21 nM, a koff of 0.0034 s⁻¹ and an on-rate (kon) of 160000 M⁻¹ s⁻¹. Further, in assay [3], the Kd came to 40 nM, the koff stood at 0.0016 s⁻¹ and the kon came to 39000 M⁻¹ s⁻¹. The molecule also had a concentration for a half-maximal effect (EC50) in assay [4] of 2.02 nM.

B4: Recombinant anti-CD98 chimeric antibody chAb8 (antibody, human IgG1, V domains shown)
VH: EVQLVESGGGLVQPGRSLKLSCAASGFTFSDYAMAWVRQAPKKGLEWVASIIYDGRGTYYRDSVKGRFTISRDNAKSTLYLQMDSLRSEDTATYYCARQGDGTYYYWGYFDYWGQGVMVTVSS
VL: DIVMTQSPSSLAVSAGETVTINCKSSQSLLSSGNQKNYLAWYQQKPGQSPKLLIYWASTRQSGVPDRFIGSGSGTDFTLTINSVQAEDLAIYYCQQYYDTPYTFGAGTKLELK
In turn, B4 displayed an EC50 in assay [1] of 10.1 nM. Also, in assay [2], binding was put at a Kd of 4.2 nM, the dissociation rate constant (koff) was found to be 0.00028 s⁻¹ and the association rate constant (kon) is 67000 M⁻¹ s⁻¹. Also, in assay [3], binding was put at a Kd of 17 nM, the koff was 0.0005 s⁻¹ and the kon is 28000 M⁻¹ s⁻¹. Besides, in assay [4], the EC50 came to 2.61 nM.

B5: Recombinant anti-CD98 chimeric antibody chAb6 (antibody, human IgG1, V domains shown)
VH: QVQLKESGPGLAQPSQTLSLTCTVSGFSLSTYGVIWLRQPPGKGLEWMGVIWTNGNTNYNSTLKSRLSISRDTSESQVYLQMNSLQTEDTATYYCARHYYDGAYYYGYFDYWGQGVMVTVSS
VL: DIVMTQTPSSQAVSAGEKVTMSCKSSQSLLYSENKKNYLAWYQQKPGQSPKLLIYWASTRESGVPDRFIGSGSGTDFTLTISSVQAEDLAVYYCQQYYYFPYTFGAGTKLELK
Take B5: the EC50 in assay [1] was 5.99 nM; in assay [4], 2.08 nM. Moreover, the values for the dissociation constant (Kd) in assay [2] and in assay [3] were 1.3 nM and 7.9 nM, respectively. Also, the koff in assay [2] came out at 0.00014 s⁻¹; in assay [3], 0.00037 s⁻¹. Besides, the results for the kon in assay [2] and in assay [3] were 110000 M⁻¹ s⁻¹ and 47000 M⁻¹ s⁻¹, respectively.

B6: Recombinant anti-CD98 chimeric antibody chAb7 (antibody, human IgG1, V domains shown)
VH: QVQLKESGPGLVQPSQTLSLTCTVSGFSLSTYGVIWVRQPPGKGLEWMGVIWANGNTNYNSTLKSRLSISRDTSKSQVYLKMNSLQTEDTATYYCARHYYDGTYYYGYFDYWGQGVMVTVSS
VL: DIVMTQTPSSQAVSAGEKVTMNCKSSQSLLYSENKKNYLAWYQQKPGQSPKLLIYWASTRESGVPDRFIGSGSGTDFTLTISSVQAEDLAVYYCQQYYYFPYTFGPGTKLELK
The molecule B6 displayed an EC50 in assay [1] of 6.49 nM. In assay [2], the Kd came to 0.45 nM, the koff was 6.2e-05 s⁻¹ and the kon is 140000 M⁻¹ s⁻¹. In assay [3], this molecule returned a Kd of 3.5 nM, an off-rate (koff) of 0.00022 s⁻¹ and a kon of 63000 M⁻¹ s⁻¹. The 50% effective concentration (EC50) in assay [4] amounted to 2.56 nM.

B7: Recombinant anti-CD98 chimeric antibody chAb9 (antibody, human IgG1, V domains shown)
VH: QVQLKESGPGLVQPSQTLSLTCAVSGFSLSNYGVIWVRQPPGKGLEWMAVIWTNGNTNYNSTLKSRLSISRDTSKSQVYLKMNSLQTEDTATYYCARHYYDGTYYYGYFDYWGQGVMVTVSS
VL: DIVMTQTPSSQAVSAGEKVTMSCKSSQSLLYTENKKNYLAWYQQKPGQSPKLLIYWASTRESGVPDRFMGSGSGTDFTLTISSVQAEDLAVYYCQQYYYFPYMFGAGTKLELK
B7: a half-maximal effect in assay [1] (EC50) was put at 11.1 nM. In assay [2], this molecule registered a dissociation constant (Kd) of 3.3 nM, a koff of 0.00024 s⁻¹ and a kon of 73000 M⁻¹ s⁻¹. In assay [3], the Kd is 19 nM, the off-rate (koff) was found to be 0.00063 s⁻¹ and the kon amounted to 33000 M⁻¹ s⁻¹. Besides, the EC50 in assay [4] was determined as 8.55 nM.

B8: Recombinant anti-CD98 chimeric antibody chAb13 (antibody, human IgG1, V domains shown)
VH: QVQLKESGPGLVQPSQTLSLTCTVSGFSLSSYGVIWVRQPPGKGLEWMGIIWANGNTNYNSALKSRLSISRDTSKSQVYLKMNSLQTEDTATYYCARHYYDGTHYYGYFDYWGQGVMVTVSS
VL: DTVMTQTPSSQAVSAGEKVTMSCKSSQSLLYSENKKKYLAWYQQKPGQSPKLLIYWASTRESGVPDRFIGSGSGTDFTLTISSVQAEDLAVYYCQQYYNFPYTFGAGTKLELK
notes: also called chAbl 3
In assay [1], B8 had a concentration giving a half-maximal response (EC50) of 2.98 nM. In assay [2], the affinity, expressed as Kd, was 1.2 nM; the off-rate constant (koff) is 0.00016 s⁻¹; the kon came out at 130000 M⁻¹ s⁻¹. Also, in assay [3], binding was characterised by a dissociation constant (Kd) of 7.1 nM, the koff was found to be 0.00044 s⁻¹ and the association rate constant (kon) came out at 62000 M⁻¹ s⁻¹. The EC50 in assay [4] turned out to be 3.24 nM.
